Patent US20240317834A1, “COMPOSITIONS AND METHODS FOR NEUROLOGICAL DISEASES” (CODA BIOTHERAPEUTICS, INC., priority 2020, published 2024)
Changes are numbered by the printed parent chain. Numbers in names are those of the source.

Test system: Lenti-X 293T cells
Assay: YFP fluorescence quenching anion reporter plate reader assay of engineered receptors stimulated with acetylcholine or a non-native ligand
Type: cell-based
Conditions: for percent quench of YFP fluorescence, 10 uM ach: acetylcholine 10 uM; for percent quench of YFP fluorescence, 100 uM ach: acetylcholine 100 uM; for percent quench of YFP fluorescence, 1 mM ach: acetylcholine 1 mM; for percent quench of YFP fluorescence, 3 mM ach: acetylcholine 3 mM
Outline: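 Lenti-X 293T cells carrying a YFP anion reporter were transiently transfected with channel DNA and assayed the next day in HEPES-buffered ECS at pH 7.2. Ligand (acetylcholine or non-native ligand) was added in NaI-substituted ECS. Percent quench was the mean of the last 10 s relative to the 15 s pre-addition baseline.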

B1: CODA217: engineered chimeric LGIC receptor, W77F in SEQ ID NO: 33 (protein)
chain: MRCSPGGVWLALAASLLHVSLQGEFQRKLYKELVKNYNPLERPVANDSQPLTVYFSLSLLQIMDVDEKNQVLTTNIFLQMSWTDHYLQWNVSEYPGVKTVRFPDGQIWKPDILLYNSADERFDATFHTNVLVNSSGHCQYLPPGIFKSSCPMDLKNFPMDVQTCKLKFGSWSYGGWSLDLQMQEADISGYIPNGEWDLVGIPGKRSERFYECCKEPYPDVTFTVTMRRRMGYYLIQMYIPSLLIVILSWISFWINMDAAPARVGLGITTVLTMTTQSSGSRASLPKVSYVKAIDIWMAVCLLFVFSALLEYAAVNFVSRQHKELLRFRRKRRHHKSPMLNLFQEDEAGEGRFNFSAYGMGPACLQAKDGISVKGANNSNTTNPPPAPSKSPEEMRKLFIQRAKKIDKISRIGFPMAFLIFNMFYWIIYKIVRREDVHNQ
modifications: synthetic sequence of chimeric LGIC
- YFP fluorescence quenching using CNL001 (1 nM CNL001, first column): −22.273%
- YFP fluorescence quenching using CNL001 (1 nM CNL001, second column): −19.415%
- YFP fluorescence quenching using TC-5619/Bradanicline (3 nM brd): −12.1%
- YFP fluorescence quenching using Varenicline (3 nM var, first column): 5.662
- YFP fluorescence quenching using Varenicline (3 nM var, second column): 7.57
- YFP fluorescence quenching using CNL001 (10 nM CNL001, first column): −9.563%
- YFP fluorescence quenching using CNL001 (10 nM CNL001, second column): 6.398%
- YFP fluorescence quenching using TC-5619/Bradanicline (30 nM brd): −14.72%
- YFP fluorescence quenching using Facinicline (30 nM fac): −10.14
- YFP fluorescence quenching using Varenicline (30 nM var, first column): 13.968
- YFP fluorescence quenching using Varenicline (30 nM var, second column): 19.079
- YFP fluorescence quenching using CNL001 (50 nM CNL001, first column): 61.938%
- YFP fluorescence quenching using CNL001 (50 nM CNL001, second column): 66.837%
- YFP fluorescence quenching using ABT-126 (50 nM abt): 37.81%
- YFP fluorescence quenching using CNL001 (100 nM CNL001, first column): 79.791%
- YFP fluorescence quenching using CNL001 (100 nM CNL001, second column): 80.908%
- YFP fluorescence quenching using CNL002 (100 nM CNL002): 67.81%
- YFP fluorescence quenching using ABT-126 (100 nM abt): 57.31%
- YFP fluorescence quenching using AZD-0328 (100 nM azd0328): −7.57%
- YFP fluorescence quenching using ABT-126 (300 nM abt): 12.61%
- YFP fluorescence quenching using AZD-0328 (300 nM azd0328): 7.08%
- YFP fluorescence quenching using TC-5619/Bradanicline (300 nM brd): −6.3%
- YFP fluorescence quenching using Facinicline (300 nM fac): 68.29
- YFP fluorescence quenching using Varenicline (300 nM var, first column): 16.183
- YFP fluorescence quenching using Varenicline (300 nM var, second column): 18.025
- YFP fluorescence quenching using Varenicline (500 nM var, first column): 23.366
- YFP fluorescence quenching using Varenicline (500 nM var, second column): 19.206
- YFP fluorescence quenching using CNL001 (1 uM CNL001, first column): 83.444%
- YFP fluorescence quenching using CNL001 (1 uM CNL001, second column): 83.905%
- YFP fluorescence quenching using CNL002 (1 uM CNL002): 69.42%
- YFP fluorescence quenching using ABT-126 (1 uM abt): 66.05%
- YFP fluorescence quenching using TC-6987 (1 uM tc6987): −10.35
- YFP fluorescence quenching using Varenicline (1 uM var, first column): 34.69
- YFP fluorescence quenching using Varenicline (1 uM var, second column): 30.504
- YFP fluorescence quenching using TC-6987 (10 uM tc6987): −13.93
- YFP fluorescence quenching using CNL002 (30 uM CNL002): 73.64%
- YFP fluorescence quenching using AZD-0328 (30 uM azd0328): 81.59%
- YFP fluorescence quenching using Facinicline (30 uM fac): 87.35
- YFP fluorescence quenching using TC-6987 (500 uM tc6987): −7.54
- percent quench of YFP fluorescence, 10 uM ach: −5.86%
- percent quench of YFP fluorescence, 100 uM ach: 70.06%
- percent quench of YFP fluorescence, 1 mM ach: 68.71%
- percent quench of YFP fluorescence, 3 mM ach: 73.45%

B2: CODA109: engineered chimeric LGIC receptor, S170T in SEQ ID NO: 33 (protein)
chain: B1 chain with F77W, S170T
modifications: synthetic sequence of chimeric LGIC
- YFP fluorescence quenching using CNL001 (1 nM CNL001, first column): 19.755%
- YFP fluorescence quenching using CNL001 (1 nM CNL001, second column): 65.484%
- YFP fluorescence quenching using TC-5619/Bradanicline (3 nM brd): 70.58%
- YFP fluorescence quenching using Varenicline (3 nM var, first column): −20.96
- YFP fluorescence quenching using Varenicline (3 nM var, second column): −19.953
- YFP fluorescence quenching using CNL001 (10 nM CNL001, first column): 79.024%
- YFP fluorescence quenching using CNL001 (10 nM CNL001, second column): 81.563%
- YFP fluorescence quenching using TC-5619/Bradanicline (30 nM brd): 80.71%
- YFP fluorescence quenching using Facinicline (30 nM fac): 76.45
- YFP fluorescence quenching using Varenicline (30 nM var, first column): −16.094
- YFP fluorescence quenching using Varenicline (30 nM var, second column): −21.502
- YFP fluorescence quenching using CNL001 (50 nM CNL001, first column): 81.926%
- YFP fluorescence quenching using CNL001 (50 nM CNL001, second column): 83.092%
- YFP fluorescence quenching using ABT-126 (50 nM abt): 55.83%
- YFP fluorescence quenching using CNL001 (100 nM CNL001, first column): 83%
- YFP fluorescence quenching using CNL001 (100 nM CNL001, second column): 83.811%
- YFP fluorescence quenching using CNL002 (100 nM CNL002): 73.48%
- YFP fluorescence quenching using ABT-126 (100 nM abt): 68.89%
- YFP fluorescence quenching using AZD-0328 (100 nM azd0328): 84.01%
- YFP fluorescence quenching using Facinicline (100 nM fac): 82.45
- YFP fluorescence quenching using ABT-126 (300 nM abt): 72.52%
- YFP fluorescence quenching using AZD-0328 (300 nM azd0328): 87.08%
- YFP fluorescence quenching using TC-5619/Bradanicline (300 nM brd): 80.66%
- YFP fluorescence quenching using Facinicline (300 nM fac): 71.09
- YFP fluorescence quenching using Varenicline (300 nM var, first column): 64.373
- YFP fluorescence quenching using Varenicline (300 nM var, second column): 71.198
- YFP fluorescence quenching using Varenicline (500 nM var, first column): 71.892
- YFP fluorescence quenching using Varenicline (500 nM var, second column): 73.53
- YFP fluorescence quenching using CNL001 (1 uM CNL001, first column): 81.834%
- YFP fluorescence quenching using CNL001 (1 uM CNL001, second column): 83.858%
- YFP fluorescence quenching using CNL002 (1 uM CNL002): 70.03%
- YFP fluorescence quenching using ABT-126 (1 uM abt): 70.96%
- YFP fluorescence quenching using TC-6987 (1 uM tc6987): 71.45
- YFP fluorescence quenching using Varenicline (1 uM var, first column): 75.461
- YFP fluorescence quenching using Varenicline (1 uM var, second column): 78.578
- YFP fluorescence quenching using TC-6987 (10 uM tc6987): 71.04
- YFP fluorescence quenching using AZD-0328 (30 uM azd0328): 87.27%
- YFP fluorescence quenching using Facinicline (30 uM fac): 69.41
- YFP fluorescence quenching using TC-6987 (500 uM tc6987): 66.2
- percent quench of YFP fluorescence, 10 uM ach: 82.91%
- percent quench of YFP fluorescence, 30 uM ach (acetylcholine 30 uM): 82.53%
- percent quench of YFP fluorescence, 50 uM ach (acetylcholine 50 uM): 82.11%
- percent quench of YFP fluorescence, 100 uM ach: 83.68%
- percent quench of YFP fluorescence, 1 mM ach: 69.89%
- percent quench of YFP fluorescence, 3 mM ach: 78.12%
